Assay results taken from publication PMC2832003.
Each block holds one binder with its values, some of them ahead of it.

What was measured:
[1] = biological target: T1, activin type IIB receptor (ActRIIB), coated on ELISA plates, Q13705
[2] = biological target: T1, activin type IIB receptor (ActRIIB), …; test: ELISA; competition: quantified conditioned media compete with biotinylated inhibin A for ActRIIB coated on the plate
[3] = biological target: T1, activin type IIB receptor (ActRIIB), …; test: ELISA; competition: quantified conditioned media compete with biotinylated activin A for ActRIIB coated on the plate
[4] = biological target: T1, activin type IIB receptor (ActRIIB), …; test: ELISA; 50 ng ActRIIB dried in each well (20 mM HEPES pH 7.4); biotinylated inhibin A or activin A in TBST pH 7.4, 1.5 h, room temperature; streptavidin-HRP; standard binding curve

IC50 of antagonism of activin A (0.4 nM) in the FSHβ-luciferase assay in LβT2 cells, with transfected betaglycan [1]: 0.27 nM
IC50 of antagonism of activin A (0.4 nM) in the FSHβ-luciferase assay in LβT2 cells, without betaglycan [1]: 0.31 nM
IC50 [2]: 2.96 nM
B1: α^HPWR−/βA mutant inhibin A, P05111 233-366; P08476 311-426 (complex)
chain 1: STPLMSWPWSPSALRLLQRPPEEPAAHANCHRVALNISFQELGWERWIVYPPSFIFHYCHGGCGLHIYSLLPGAQPCCAALPGTMRPLHVRTTSDGGYSFKYETVPNLLTQHCACI
chain 2: GLECDGKVNICCKKQFFVSFKDIGWNDWIIAPSGYHANYCEGECPSHIAGTSGSSLSFHSTVINHYRMRGHSPFANLKSCCVPTKLRPMSMLYYDDGQNIIKKDIQNMIVEECGCS

IC50 [3]: 4.14 nM
B2: wild type human activin A (βA/βA dimer), P08476 311-426 (complex)
chain: GLECDGKVNICCKKQFFVSFKDIGWNDWIIAPSGYHANYCEGECPSHIAGTSGSSLSFHSTVINHYRMRGHSPFANLKSCCVPTKLRPMSMLYYDDGQNIIKKDIQNMIVEECGCS

EC50 [4]: 2.73 nM
B3: biotinylated human inhibin A, P05111 233-366; P08476 311-426 (complex)
chain 1: STPLMSWPWSPSALRLLQRPPEEPAAHANCHRVALNISFQELGWERWIVYPPSFIFHYCHGGCGLHIPPNLSLPVPGAPPTPAQPYSLLPGAQPCCAALPGTMRPLHVRTTSDGGYSFKYETVPNLLTQHCACI
chain 2: GLECDGKVNICCKKQFFVSFKDIGWNDWIIAPSGYHANYCEGECPSHIAGTSGSSLSFHSTVINHYRMRGHSPFANLKSCCVPTKLRPMSMLYYDDGQNIIKKDIQNMIVEECGCS
modifications: here or on the partner: biotin (EZ-link Micro Sulfo-NHS-LC-biotinylation Kit), sites not stated | biotin (EZ-link Micro Sulfo-NHS-LC-biotinylation Kit), sites not stated

IC50 [2]: 9.01 nM
B4: wild type human inhibin A (α^Hwt/βA), P05111 233-366; P08476 311-426 (complex)
chain 1: STPLMSWPWSPSALRLLQRPPEEPAAHANCHRVALNISFQELGWERWIVYPPSFIFHYCHGGCGLHIPPNLSLPVPGAPPTPAQPYSLLPGAQPCCAALPGTMRPLHVRTTSDGGYSFKYETVPNLLTQHCACI
chain 2: GLECDGKVNICCKKQFFVSFKDIGWNDWIIAPSGYHANYCEGECPSHIAGTSGSSLSFHSTVINHYRMRGHSPFANLKSCCVPTKLRPMSMLYYDDGQNIIKKDIQNMIVEECGCS

IC50 [2]: 128 nM
B5: α^Hext−/βA mutant inhibin A, P05111 233-366; P08476 311-426 (complex)
chain 1: STPLMANCHRVALNISFQELGWERWIVYPPSFIFHYCHGGCGLHIPPNLSLPVPGAPPTPAQPYSLLPGAQPCCAALPGTMRPLHVRTTSDGGYSFKYETVPNLLTQHCACI
chain 2: GLECDGKVNICCKKQFFVSFKDIGWNDWIIAPSGYHANYCEGECPSHIAGTSGSSLSFHSTVINHYRMRGHSPFANLKSCCVPTKLRPMSMLYYDDGQNIIKKDIQNMIVEECGCS
modifications: here or on the partner: disulfide-linked heterodimer; alpha-subunit N-glycosylated (CHO-expressed)

IC50 [2]: 5.55 nM
B6: wild type chicken inhibin A (α^Chwt/βA), P43031 217-329; P08476 311-426 (complex)
chain 1: SAVPWSPAALSLLQRPSEDVAAHTNCRRASLNISFEELGWDNWIVHPSSFVFHYCHGNCAEGHGLSHRLGVQLCCAALPGTMRSLRVRTTSDGGYSFKYETVPNILAQDCTCV
chain 2: GLECDGKVNICCKKQFFVSFKDIGWNDWIIAPSGYHANYCEGECPSHIAGTSGSSLSFHSTVINHYRMRGHSPFANLKSCCVPTKLRPMSMLYYDDGQNIIKKDIQNMIVEECGCS

EC50 [4]: 1.1 nM
B7: biotinylated human activin A, P08476 311-426 (complex)
chain: GLECDGKVNICCKKQFFVSFKDIGWNDWIIAPSGYHANYCEGECPSHIAGTSGSSLSFHSTVINHYRMRGHSPFANLKSCCVPTKLRPMSMLYYDDGQNIIKKDIQNMIVEECGCS
modifications: here or on the partner: biotin (EZ-link Micro Sulfo-NHS-LC-biotinylation Kit), sites not stated
